This note sets out measurements from US20110165265A1, “TRAIL VARIANTS FOR TREATING CANCER” (FUNDACIÓ GENÒMICA (CRG), priority 2007, published 2011).

The test concerns the target death receptor 5 (DR5) on the cell surface (human) (UniProt O14763). Kind of test: cell-based or functional assay.

On to “wild-type TRAIL (recombinant human soluble TRAIL, amino acids 114-281) (from UniProt P50591 114-281) (ligand)”, for which the TRAIL-mediated death of Colo205 cells in the presence of neutralizing anti-DR5 antibody turned out to be 3 fold and the incubation time of Colo205 cells with 30 ng/ml ligand needed for a comparable level of pro-caspase-8 processing (Western blot) was 60 min.
